Measurements taken from patent US20120207788A1 (BIOMAY, published 2012).

B1: hybrid molecule C (other)
chain: MGAASNKAFAEGLSGEPKGAAESSSKAALTSKLDAAYKLAYKTAEGATPEAKYDAYVATLSEALRIIAGTLEVHAVKPAADLGYGPATPAAPAAGYTPATPAAPAEAAPAGKATTEEQKLIEKINAGFKAALAAAAGVQPADKYRTFVATFSGRGCGSCFEIKCTKPEACSGEPVVVHITDDNEEPIAPYHFDLSGHAFGAMAKKGDEQKLRTGPFTVRYTTEGGTKTEAEDVIPEGWKADTSYESKHHHHHH
B2: hybrid molecule B (other)
chain: MAVKQAYAATVATAPEVKYTVFETALKKAITAMSEAQKAAKPAAAATATATAAVGAATGAATAATGGYKVAEEVKVIPAGELQVIEKVDAAFKVAATAANAAPANDKFTVFEAAFNDAIKASTGGAYESYKFIPALEAIPKVPPGPNITATYGDKWLDAKSTWYGKPTGAGPKDNGGACGYKDVDKPPFSGMTGCGNTPIFKSAGELELQFRRVKCKYPEGTKVTFHVEKGSNPNYLALLVKYVNGDGDVVAVDIKEKGKDKWIELKESWGAIWRIDTPDKLHHHHHH
B3: hybrid molecule P (other)
chain: MGAASNKAFAEGLSGEPKGAAESSSKAALTSKLDAAYKLAYKTAEGATPEAKYDAYVATLSEALRIIAGTLEVHAVKPAADLGYGPATPAAPAAGYTPATPAAPAEAAPAGKATTEEQKLIEKINAGFKAALAAAAGVQPADKYRTFVATFSGRGCGSCFEIKCTKPEACSGEPVVVHITDDNEEPIAPYHFDLSGHAFGAMAKKGDEQKLRTGPFTVRYTTEGGTKTEAEDVIPEGWKADTSYESKAEEVKVIPAGELQVIEKVDAAFKVAATAANAAPAAVKQAYAATVATAPEVKYTVFETALKKAITAMSEAQKAAKPAAAATATATAAVGAATGAATAATGGYKVNDKFTVFEAAFNDAIKASTGGAYESYKFIPALEAIPKVPPGPNITATYGDKWLDAKSTWYGKPTGASAGELELQFRRVKCKYPEGTKVTFHVEKGSNPNYLALLVKYVNGDGDVVAVDIKEKGKDKWIELKESWGAIWRIDTPDKLGPKDNGGACGYKDVDKPPFSGMTGCGNTPIFKHHHHHH
B4: hybrid molecule Q (other)
chain: MFRFLTEKGMKNVFDDVVPEKYTIGATYAPEEDEWVAMTKGEGGVWTFDSEEPLQGPFNADKYKTFEAAFTVSSKRNLADAVSKAPQLVPKLDEVYNAAYNAADHAAPEDKYEAFVLHFSEALRIIAGTPEVHAVKPGAVPKVTFTVEKGSNEKHLAVLVKYEGDTMAEVELREHGSHHHHHH

These binders were tested against serum IgE from grass pollen allergic patients (assay: cell-based or functional assay).

**Q.** Which “CD203c expression on human basophils isolated from grass pollen allergic patients” value (from here on “CD203c expression”) does the source give for B1 here?
**A.** 10 fold

**Q.** B2 was tested. Which “CD203c expression” value did it give?
**A.** 10 fold

**Q.** B3 was tested. Which “CD203c expression” value did it give?
**A.** 10 fold

**Q.** For B4, which “CD203c expression” value is on record?
**A.** 10 fold
